Measurements published in the supplement of paper PMC11780869.

System: Bacillus subtilis
Experiment: cleaved RNA product abundance (RNA/gDNA barcode ratio) relative to median wild-type variant (ratio to wild type); higher = more accumulation of the downstream cleavage product
Outline: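 Reporter mRNAs (truncated aprE or tetM) carrying barcoded, mutagenized RNase Y cleavage-site windows were made from oligos with a 9% error rate and integrated into the B. subtilis chromosome. Cultures grew in LB at 37°C from OD600 0.0003 to 0.3. Cleaved RNA was gel-selected, reverse transcribed and barcode-sequenced alongside genomic DNA barcodes, with UMI collapsing. Cleaved product abundance is the RNA:gDNA barcode ratio per variant, scaled to the median wild-type variant.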

[1] = experiment (reporter, strain, medium): exp 4a: truncated aprE reporter, strain BJT201 with 2% xylose (RNase J1 expressed), cleavage site: cggR-gapA (positions -7 to +36 mutated)
[2] = experiment (reporter, strain, medium): exp 8a: truncated aprE reporter, strain BJT201 with 2% xylose (RNase J1 expressed), cleavage site: glnRA (positions -5 to +31 mutated)
[3] = experiment (reporter, strain, medium): exp 2b: truncated aprE reporter, strain BJT200, cleavage site: cggR-gapA (positions -7 to +36 mutated)
[4] = experiment (reporter, strain, medium): exp 6: tetM reporter, strain 168, cleavage site: cggR-gapA (positions -7 to +36 mutated)

Sequence | cleaved RNA product abundance [1] | cleaved RNA product abundance [2] | cleaved RNA product abundance [3] | further results
ACAGACGAAGGAGCCGCAAAGAAGTTATTAAGGGATGAATAATTCCACAATATAAATATCTCTCACTTATTTAAA | 0.148 | – | – | –
ACAGACGAAGGAGCCGCAAAGAAGTTATTAAGGGAGGAATAATCTCTCAATATAAATATCTCTCACTTATTTAAA | 0.198 | – | – | –
ACAGACGAAGGAGCCGCAAAGATGTTATTAAGGGATAAATAATCCCTCAATATAAATATCTCTCACTTATTTAAA | 0.906 | – | – | –
ACAGACGAAGGAGCCGCAAAGAAGTGATTAAAGGATGAATAATCCCTCAATATAAATATCTCTCACTTATTTAAA | 0.19 | – | – | –
CGACATGTCCCGCTTCTTTCATTATTCCGTTAGCAACTGTTTTGCTAAATACATTTACCTTTTAAGAGGAGGAAT | – | 0.93 | – | –
ACAGACGAAGGAGCCGCAAAGAAGTTATTAAGCGATGAATAATCCCGCAATATAAATATCTCTCACTTATTTAAA | 0.0767 | – | 0.0603 | –
ACAGACGAAGGAGCCGCAAAGAAGTGATTAAGGGATGAATAATCCCTCAACATAAATATCTCTCACTTATTTAAA | – | – | 0.293 | –
CGACATGTCCCGCTTCTTTCATTAATCCGTTAGCAACTGTTTTGCTTTATACATATACCTTTTAAGAGGAGGAAT | – | 0.406 | – | –
CGACATGTCCCGCTTCTTTCATTAATACGTAAGCAACTGTTTTGCTATATACATTTACCTTTTAAGAGGAGGAAT | – | 0.225 | – | –
ACAGACGAAGGAGCCGCAAAGAAGTTATTAAGGGAAGAATATTCCCTCAATATAAATATCTCTCACTTATTTAAA | 0.603 | – | 0.797 | –
ACAGACGAAGGAGCCGCAAAGAAGTTATTTAGGGATCAATAATCCCTCAATATAAATATCTCTCACTTATTTAAA | 0.787 | – | – | –
ACAGACGAAGGAGCCGCAAAGACGTTATTAAGGGATGAATAATCCCTCAATATAAATATCTCTCACTTATTTAAA | 1.02 | – | 0.978 | cleaved RNA product abundance [4]: 1.12
ACAGACGAAGGAGCCGCAAATAAGTTATTAAGGGATGAATAATCCCTCAATATAAAGATCTCTCACTTATTTAAA | 0.565 | – | 0.535 | –
CGACATGTCCCGCTTCTTTCATTATTCCGTTAGCCACTGTTTTGCTATATACATTTACCTTTTAAGAGGAGGAAT | – | 0.595 | – | –
ACAGACGAAGGAGCCGCAAAGAAGTTATTAAGGGATGAATAATCCCTTAATAAAAATATCTCTCACTTATTTAAA | – | – | – | cleaved RNA product abundance [4]: 0.227
CGACATGTCCCGCTTCTTTCATTAATCCGTTATCAACTGTTTTGTTATATACATTTACCTTTTAAGAGGAGGAAT | – | 0.272 | – | –
ACAGACGAAGGAGCCGCAAAGAAGTGATTAAGGGCTGAATAATCCCTCAATATAAATATCTCTCACTTATTTAAA | 0.309 | – | – | –
CGACATGTCCCGCTTCTTTCATTAATCCGTTAGTATCTGTTTTACTATATACATTTACCTTTTAAGAGGAGGAAT | – | 0.917 | – | –
ACAGACGAAGGAGCCGCAAAGAAGTTATTAAGAGATGAATAATCCCTCAATATAGATATCTCTCACTTATTTAAA | 0.147 | – | – | –
ACAGACGAAGGAGCCGCAAAGAAGTTATTACGGGATGAATAATCCCTAAATATAAATATCTCTCACTTATTTAAA | 0.394 | – | 0.428 | –
ACAGACGAAGGAGCCGCAAAGAAGTTATTAAGGGACGAATAATCCCTCAATATAAATATCTCTCACTTATTTAAA | 0.697 | – | 0.691 | cleaved RNA product abundance [4]: 0.805
ACAGACGAAGGAGCCGCAAAGATGTTATTAAGGGATGAATAATCCATCAATATAAATATCTCTCACTTATTTAAA | 0.311 | – | 0.171 | –
ACAGACGAAGGAGCCGCAAAGAAGTTATTAAGGGATGAATAATCCCTCACTATAAATAACTCTCACTTATTTAAA | 0.285 | – | 0.175 | –
CGACATGTCCCGCTTCTTTCATTAATTCATTAGCAACTGTTTTGCTATATACATTTACCTTTTAAGAGGAGGAAT | – | 0.776 | – | –
CGACATGTCCCGCTTCTTTCATTAATCCGTTAGTAACTGTTTTGATATATACATTTACCTTTTAAGAGGAGGAAT | – | 0.66 | – | –
ACAGACGAAGGAGCCGCAAAGAAGTTATTAAGGTATGAATAATCCCTCAAAATAAATATCTCTCACTTATTTAAA | 0.115 | – | 0.108 | –
CGACATGTCCCGCTTCTTTCATTAATCCGTTAGCAACTGTTTGGCAATATACATTTACCTTTTAAGAGGAGGAAT | – | 0.499 | – | –

Sequence | cleaved RNA product abundance [1] | cleaved RNA product abundance [2] | cleaved RNA product abundance [3] | further results
CGACATGTCCCGCTTCTTTCATTAATCCGTTAGCAACTGTTTAGCTATATATATTTACCTTTTAAGAGGAGGAAT | – | 0.416 | – | –
ACAGACGAAGGAGCCGCAAAGAAGTTATTAAGGTATGAATAATCCTTCAATATAAATATCTCTCACTTATTTAAA | 0.126 | – | 0.145 | –
ACAGACGAAGGAGCCGCAAAGAAGTTATTAAGGGACGAATAATCTCTCAATATAAATATCTCTCACTTATTTAAA | – | – | 0.139 | –
ACAGACGAAGGAGCCGCAAAGAAGTTAATAAGGGATGAATAATCCCTTAATATAAATATCTCTCACTTATTTAAA | 0.519 | – | 0.572 | –
ACAGACGAAGGAGCCGCAAAGAAGTTCTTAAGTGATGAATAATCCCTCAATATAAATATCTCTCACTTATTTAAA | 0.0965 | – | 0.0656 | –
ACAGACGAAGGAGCCGCAAAGAAGTTATTAAGGGATGCATAATCCCTAAATATAAATATCTCTCACTTATTTAAA | 0.76 | – | – | –
CGACATGTCCCGCTTCTTTCATTAATCCGTTATCAACTGTTTTGCTATATACATTTTCCTTTTAAGAGGAGGAAT | – | 0.122 | – | –
ACAGACGAAGGAGCCGCAAAGAAGTTATTAAGGGACGAATATTCCCTCAATATAAATATCTCTCACTTATTTAAA | 0.525 | – | – | –
ACAGACGAAGGAGCCGCAAAGAAGTTATTAAGGGATGAATAATCACTCAAAATAAATATCTCTCACTTATTTAAA | 0.122 | – | 0.0846 | –
ACAGACGAAGGAGCCGCAAAGAAGTTAAAAAAGGATGAATAATCCCTCAATATAAATATCTCTCACTTATTTAAA | 0.227 | – | – | –
CGACATGTCCCGCTTCTTTCATTATTCCGTTAGCAACTGTTCTGCTATATACATTTACCTTTTAAGAGGAGGAAT | – | 0.551 | – | –
ACAGACGAAGGAGCCGCAAAGAAGTAATTAAAGGATTAATAATCCCTCAATATAAATATCTCTCACTTATTTAAA | 0.183 | – | – | –
ACAGACGAAGGAGCCGCAAAGAAGTTATTTAGGGATGAATAATCCATCAATATAAATATCTCTCACTTATTTAAA | 0.34 | – | – | –
ACAGACGAAGGAGCCGCAAAGAAGTTATCAAGAGATGAATAATCCCTCAATATAAATATCTCTCACTTATTTAAA | 0.116 | – | 0.0893 | –
CGACATGTCCCGCTTCTTTCATTAATCCGTTAGCAACAGTTTTGCTATATACATTTAACTTTTAAGAGGAGGAAT | – | 0.916 | – | –
CGACATGTCCCGCTTCTTTCATTAATCCGTTAGCAAATGTTTTGCTATACACATTTACCTTTTAAGAGGAGGAAT | – | 0.444 | – | –
ACAGACGAAGGAGCCGCAAAGATGTTATTAAGGGATGAATAATGCCTCAATATAAATATCTCTCACTTATTTAAA | 0.186 | – | – | –
ACAGACGAAGGAGCCGCAAAGAAGTTATTAAGGGATGAATAATCCCTCATTATAAATAACTCTCACTTATTTAAA | 0.248 | – | – | –
ACAGACGAAGGAGCCGCAAAGAAGTAAGTAAGGGATGAATAATCCCTCAATATAAATATCTCTCACTTATTTAAA | 0.378 | – | 0.212 | –
ACAGACGAAGGAGCCGCAAAGAAGTTATCAAGGGATGAATAATCCCTCAATATAAATATCTCTCACTTATTTAAA | 0.385 | – | 0.27 | cleaved RNA product abundance [4]: 0.34
ACAGACGAAGGAGCCGCAAAGAAGTTATCAAGGGATGAATAATCCATCAATATAAATATCTCTCACTTATTTAAA | 0.321 | – | – | –
ACAGACGAAGGAGCCGCTAAGAAGTAATTAAGGGATGAATAATCCCTCAATATAAATATCTCTCACTTATTTAAA | 0.309 | – | – | –
ACAGACGAAGGAGCCGCAAAGAAGTTATTAAGGGATGAATACTCCGTCAATATAAATATCTCTCACTTATTTAAA | 0.126 | – | – | –
CGACATGTCCCGCTTCTTTCATTAATCCTTTAGAAACTGTTTTGCTATATACATTTACCTTTTAAGAGGAGGAAT | – | 0.18 | – | –
CGACATGTCCCGCTTCTTTCATTACTCCGTTAGCAACTGTTTTGCTATATACATTTACCATTTAAGAGGAGGAAT | – | 1.3 | – | –
ACAGACGAAGGAGCCGCAAAGAAGTTATTAAGGGATGAATAATCCCTCAGTATATATATCTCTCACTTATTTAAA | 0.242 | – | – | –
